Assay [1] deals with EYFP-Rev (HIV-1) (UniProt P04618). Description: FRET Rev-multimerization assay, purified proteins mixed.
The target is the same in assay [2]. The assay is described as follows: FRET Rev-multimerization assay, negative control ECFP + EYFP-Rev.

Sequence of EYFP-Rev (HIV-1) (P04618 whole entry): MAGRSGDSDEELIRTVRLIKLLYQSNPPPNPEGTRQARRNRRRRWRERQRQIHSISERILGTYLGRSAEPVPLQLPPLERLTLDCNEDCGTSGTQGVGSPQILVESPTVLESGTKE

ECFP-Rev (from UniProt P04618 1-116) came in with an FRET efficiency with EYFP-Rev (HIV-1) [1] of 20 to 35%.

Regarding free ECFP, the FRET efficiency in the assay with EYFP-Rev (HIV-1) [2] came out at 1.6%.

For the origin of these results see patent WO2009147196A1.
